The results in this text go back to patent US20250109201A1.

The target of test [1] is ECD-His tagged human ILT2 haplotype PE01 (human) (UniProt Q8NHL6). Description: SPR, LILRA and LILRB family panel. For orientation: In SPR one partner is held on a chip, and binding of the other changes the refractive index at the surface.
Test [2] concerns the target recombinant human LILRA3/ILT6 (Sino Biological 13549-H08H-100) (human) (UniProt Q8N6C8). Description: SPR, LILRA and LILRB family panel.
The target in test [3] is recombinant human LILRA1/LIR-6 (Sino Biological 17220-H08H-100) (human) (UniProt O75019). Nature of the test: SPR, LILRA and LILRB family panel.
Test [4] concerns the target human ILT2 extracellular and transmembrane domains expressed on CHO cells (human) (UniProt Q8NHL6). Nature of the test: flow cytometry, CHO cells with high human ILT2. (In flow cytometry, cells or beads pass a laser one at a time.)
The target is the same in test [5]. Nature of the test: flow cytometry, CHO cells with low human ILT2.
For test [6], the target named is complement component C1q (Sigma/C1740-1 mg) (human) (UniProt P02745). Description: ELISA, antibody coated in a dilution series, C1q added at 2 µg/mL, biotinylated anti-C1q and streptavidin-HRP. For orientation: In an ELISA, binding on a coated surface is turned into a signal by an enzyme label.
The target is the same in test [7]. Nature of the test: ELISA, antibody coated, C1q in solution, OD 450 nm.
For test [8], the target named is human ILT2 extracellular and transmembrane domains expressed on CHO cells (human) (UniProt Q8NHL6). Description: flow cytometry, blocking of HLA-G-Fc-PE on CHO cells with high human ILT2.
Test [9] deals with full-length ILT2 expressed on Jurkat cells (human) (UniProt Q8NHL6). Nature of the test: cell-based or functional assay.
Chain of full-length ILT2 expressed on Jurkat cells (human) (Q8NHL6 24-650): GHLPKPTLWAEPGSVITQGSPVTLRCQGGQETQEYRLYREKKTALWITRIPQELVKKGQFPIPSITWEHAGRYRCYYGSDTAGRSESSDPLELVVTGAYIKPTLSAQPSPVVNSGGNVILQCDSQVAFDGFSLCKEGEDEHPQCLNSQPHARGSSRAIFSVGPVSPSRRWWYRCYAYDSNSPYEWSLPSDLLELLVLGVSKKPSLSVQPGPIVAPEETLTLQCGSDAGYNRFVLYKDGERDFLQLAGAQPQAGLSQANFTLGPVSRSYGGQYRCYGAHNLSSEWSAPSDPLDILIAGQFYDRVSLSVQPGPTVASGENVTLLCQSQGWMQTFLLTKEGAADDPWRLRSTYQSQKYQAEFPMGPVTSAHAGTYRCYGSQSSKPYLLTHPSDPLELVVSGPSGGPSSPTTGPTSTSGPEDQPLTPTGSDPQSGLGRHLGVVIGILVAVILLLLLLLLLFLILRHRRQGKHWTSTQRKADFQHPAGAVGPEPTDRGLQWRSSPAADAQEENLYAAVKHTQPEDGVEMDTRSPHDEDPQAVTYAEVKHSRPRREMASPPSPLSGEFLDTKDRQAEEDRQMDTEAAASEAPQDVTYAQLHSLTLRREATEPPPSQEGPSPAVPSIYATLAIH

Chain of ECD-His tagged human ILT2 haplotype PE01 (human) (Q8NHL6 24-458): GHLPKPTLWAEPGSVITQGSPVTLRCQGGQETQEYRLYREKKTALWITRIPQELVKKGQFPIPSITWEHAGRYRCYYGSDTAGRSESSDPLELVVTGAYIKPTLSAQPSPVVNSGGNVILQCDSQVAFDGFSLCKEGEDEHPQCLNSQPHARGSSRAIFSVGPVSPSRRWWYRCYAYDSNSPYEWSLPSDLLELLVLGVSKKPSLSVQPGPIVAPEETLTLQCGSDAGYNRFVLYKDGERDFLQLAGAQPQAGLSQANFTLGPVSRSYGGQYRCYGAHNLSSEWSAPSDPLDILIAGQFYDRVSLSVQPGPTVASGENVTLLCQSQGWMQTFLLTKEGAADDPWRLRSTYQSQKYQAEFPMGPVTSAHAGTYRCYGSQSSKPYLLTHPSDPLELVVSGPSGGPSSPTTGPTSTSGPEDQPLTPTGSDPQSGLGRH
Chain of recombinant human LILRA1/LIR-6 (Sino Biological 17220-H08H-100) (human) (O75019 17-461 limits assumed): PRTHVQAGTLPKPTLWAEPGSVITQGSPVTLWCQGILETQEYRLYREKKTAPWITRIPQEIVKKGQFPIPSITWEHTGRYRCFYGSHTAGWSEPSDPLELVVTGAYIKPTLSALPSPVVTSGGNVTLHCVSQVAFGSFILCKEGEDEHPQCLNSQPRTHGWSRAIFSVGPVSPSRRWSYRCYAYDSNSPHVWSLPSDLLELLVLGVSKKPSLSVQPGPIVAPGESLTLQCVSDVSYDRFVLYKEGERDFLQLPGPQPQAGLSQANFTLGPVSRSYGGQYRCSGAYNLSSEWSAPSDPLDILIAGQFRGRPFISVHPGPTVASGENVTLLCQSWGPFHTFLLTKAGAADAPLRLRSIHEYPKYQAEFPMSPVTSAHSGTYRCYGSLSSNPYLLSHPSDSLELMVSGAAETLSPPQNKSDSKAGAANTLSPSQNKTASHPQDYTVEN
Chain of complement component C1q (Sigma/C1740-1 mg) (human) (P02745 23-245 limits assumed, chain 1 of 3): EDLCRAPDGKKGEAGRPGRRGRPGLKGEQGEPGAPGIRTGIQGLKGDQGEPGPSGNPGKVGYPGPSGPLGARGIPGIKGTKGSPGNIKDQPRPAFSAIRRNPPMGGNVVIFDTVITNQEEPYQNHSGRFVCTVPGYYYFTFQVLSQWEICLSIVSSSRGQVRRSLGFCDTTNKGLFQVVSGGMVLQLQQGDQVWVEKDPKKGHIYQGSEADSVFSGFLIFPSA
Chain of complement component C1q (Sigma/C1740-1 mg) (human) (P02746 28-253 limits assumed, chain 2 of 3, further chain): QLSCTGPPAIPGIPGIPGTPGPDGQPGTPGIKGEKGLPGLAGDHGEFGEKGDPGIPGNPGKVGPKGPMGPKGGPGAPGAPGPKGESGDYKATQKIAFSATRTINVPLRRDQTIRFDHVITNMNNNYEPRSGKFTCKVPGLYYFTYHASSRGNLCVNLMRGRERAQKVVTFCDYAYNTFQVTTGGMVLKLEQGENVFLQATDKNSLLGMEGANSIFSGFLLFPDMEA
Chain of complement component C1q (Sigma/C1740-1 mg) (human) (P02747 29-245 limits assumed, chain 3 of 3, further chain): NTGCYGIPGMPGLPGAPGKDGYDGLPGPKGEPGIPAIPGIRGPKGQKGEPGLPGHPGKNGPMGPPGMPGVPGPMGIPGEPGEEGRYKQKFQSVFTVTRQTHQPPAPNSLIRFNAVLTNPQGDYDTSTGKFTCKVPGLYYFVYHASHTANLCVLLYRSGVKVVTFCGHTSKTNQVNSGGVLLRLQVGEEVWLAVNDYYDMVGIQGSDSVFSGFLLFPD
Chain of human ILT2 extracellular and transmembrane domains expressed on CHO cells (human) (Q8NHL6 24-482 limits assumed): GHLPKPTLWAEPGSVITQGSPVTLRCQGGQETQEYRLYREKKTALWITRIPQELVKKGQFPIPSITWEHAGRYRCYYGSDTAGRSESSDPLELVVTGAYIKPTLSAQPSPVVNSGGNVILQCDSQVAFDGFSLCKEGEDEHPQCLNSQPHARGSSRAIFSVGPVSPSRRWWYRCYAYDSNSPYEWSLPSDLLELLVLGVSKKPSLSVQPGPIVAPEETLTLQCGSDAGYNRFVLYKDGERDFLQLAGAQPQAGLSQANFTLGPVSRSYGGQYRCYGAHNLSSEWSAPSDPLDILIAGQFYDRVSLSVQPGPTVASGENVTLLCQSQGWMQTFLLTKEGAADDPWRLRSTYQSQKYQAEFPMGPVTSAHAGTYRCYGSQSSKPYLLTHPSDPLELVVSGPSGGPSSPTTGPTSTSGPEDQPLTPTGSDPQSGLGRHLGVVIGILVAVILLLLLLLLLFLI
Chain of recombinant human LILRA3/ILT6 (Sino Biological 13549-H08H-100) (human) (Q8N6C8 24-439 limits assumed): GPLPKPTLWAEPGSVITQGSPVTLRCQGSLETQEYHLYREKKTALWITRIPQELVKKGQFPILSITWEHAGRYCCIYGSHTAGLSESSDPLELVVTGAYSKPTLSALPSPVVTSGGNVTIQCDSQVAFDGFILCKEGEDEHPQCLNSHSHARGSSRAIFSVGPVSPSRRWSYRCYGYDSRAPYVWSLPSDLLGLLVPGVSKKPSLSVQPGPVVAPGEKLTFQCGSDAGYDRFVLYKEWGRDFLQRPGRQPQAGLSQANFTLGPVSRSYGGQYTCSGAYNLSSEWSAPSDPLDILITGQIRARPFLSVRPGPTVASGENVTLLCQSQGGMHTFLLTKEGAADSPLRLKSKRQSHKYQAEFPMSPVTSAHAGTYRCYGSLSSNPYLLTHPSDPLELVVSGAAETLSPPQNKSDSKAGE

Broadly, the Kd is the equilibrium constant for the complex coming apart. On to “292305 (R&D Systems, #MAB20171) (antibody)”, for which the Kd stood at 2.4 nM in test [1], 100 nM in [2] and 260 nM in test [3].

As for 4F9 (Biorad, #MCA2515F) (antibody), the Kd in test [1] worked out at 0.89 nM; in [2], 26 nM; in test [3], 40 nM.

Take VMP55 (Novus, #NBP2-50475PE) (antibody): the dissociation constant (Kd) was found to be 0.15 nM in test [1], 6 nM in test [2] and 32 nM in [3].

As for isotype control (VRC01 IgG4) (antibody), the AUC in [4] is 570; in test [5] it was 542.

The term EC50 (read off the curve) denotes the concentration at which the effect is half-maximal. “adalimumab (Myonex), an anti-TNFα IgG1 antibody” displayed an EC50 (read off the curve) in test [6] of 3 µg/mL.

Regarding 238145 (Abcam, #EPR22861-6) (antibody), the Kd is 0.24 nM in [1], below 0.1 nM in test [2] and 0.81 nM in [3].

Take “nivolumab (Evidentric GmbH), an anti-PD-1 IgG4 antibody”: the Average AUC in test [7] turned out to be 0.52.

Substance “IgG4 isotype control (CrownBio/C00045-5) (antibody)” had an Average AUC in [7] of 0.5.

Usually IC50 stands for the concentration that inhibits the measured activity by half. Low readings indicate greater potency in that assay, high ones weaker potency in that assay. In the case of “HP-F1 (Invitrogen, #16-5129-82) (antibody)”, the IC50 in [8] was 0.307 µg/mL. Further, in test [9], the FcγRIIIa-NFAT luciferase signaling, Average AUC normalized to HP-F1 was 100. In addition, the FcγRIIIa-NFAT luciferase signaling, EC50 in [9] worked out at 32.8 µg/mL. The Kd in test [1] worked out at 3.6 nM; in test [2] it was 15 nM; in [3] it was 7.2 nM.

With “1Q-G2 (Creative, #DCABH-4494) (antibody)”, the Kd in test [1] turned out to be 1.7 nM; in [2], 13 nM; in [3], 5 nM.
